T1: TNFR1 (Homo sapiens, UniProt P19438)
T1 chain: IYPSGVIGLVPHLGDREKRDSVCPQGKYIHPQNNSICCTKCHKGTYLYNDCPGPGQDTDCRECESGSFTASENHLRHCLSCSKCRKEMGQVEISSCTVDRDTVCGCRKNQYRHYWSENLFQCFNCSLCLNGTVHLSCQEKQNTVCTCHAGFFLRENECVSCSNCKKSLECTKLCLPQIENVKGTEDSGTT

B1: Y101N (designed binder)
chain: SMEEEVEKAAKEYEKKKKEAIEKHLEKLKAKDKEAAERFLKELEEAAKEYAKDEAKTMSEEEAKRRAKKYKEKVLLSELSEEEQKEIKEAEEKLVRTILKNVEEAAK
B2: Y101I (designed binder)
chain: SMEEEVEKAAKEYEKKKKEAIEKHLEKLKAKDKEAAERFLKELEEAAKEYAKDEAKTMSEEEAKRRAKKYKEKVLLSELSEEEQKEIKEAEEKLVRTILKIVEEAAK
B3: A63E (designed binder)
chain: SMEEEVEKAAKEYEKKKKEAIEKHLEKLKAKDKEAAERFLKELEEAAKEYAKDEAKTMSEEEEKRRAKKYKEKVLLSELSEEEQKEIKEAEEKLVRTILKYVEEAAK
B4: A10Y (designed binder)
chain: SMEEEVEKAYKEYEKKKKEAIEKHLEKLKAKDKEAAERFLKELEEAAKEYAKDEAKTMSEEEAKRRAKKYKEKVLLSELSEEEQKEIKEAEEKLVRTILKYVEEAAK
B5: Y13D (designed binder)
chain: SMEEEVEKAAKEDEKKKKEAIEKHLEKLKAKDKEAAERFLKELEEAAKEYAKDEAKTMSEEEAKRRAKKYKEKVLLSELSEEEQKEIKEAEEKLVRTILKYVEEAAK
B6: L40R (designed binder)
chain: SMEEEVEKAAKEYEKKKKEAIEKHLEKLKAKDKEAAERFRKELEEAAKEYAKDEAKTMSEEEAKRRAKKYKEKVLLSELSEEEQKEIKEAEEKLVRTILKYVEEAAK
B7: E60V (designed binder)
chain: SMEEEVEKAAKEYEKKKKEAIEKHLEKLKAKDKEAAERFLKELEEAAKEYAKDEAKTMSVEEAKRRAKKYKEKVLLSELSEEEQKEIKEAEEKLVRTILKYVEEAAK
B8: Q84P (designed binder)
chain: SMEEEVEKAAKEYEKKKKEAIEKHLEKLKAKDKEAAERFLKELEEAAKEYAKDEAKTMSEEEAKRRAKKYKEKVLLSELSEEEPKEIKEAEEKLVRTILKYVEEAAK
B9: R38M (designed binder)
chain: SMEEEVEKAAKEYEKKKKEAIEKHLEKLKAKDKEAAEMFLKELEEAAKEYAKDEAKTMSEEEAKRRAKKYKEKVLLSELSEEEQKEIKEAEEKLVRTILKYVEEAAK
B10: H24W (designed binder)
chain: SMEEEVEKAAKEYEKKKKEAIEKWLEKLKAKDKEAAERFLKELEEAAKEYAKDEAKTMSEEEAKRRAKKYKEKVLLSELSEEEQKEIKEAEEKLVRTILKYVEEAAK
B11: L43V (designed binder)
chain: SMEEEVEKAAKEYEKKKKEAIEKHLEKLKAKDKEAAERFLKEVEEAAKEYAKDEAKTMSEEEAKRRAKKYKEKVLLSELSEEEQKEIKEAEEKLVRTILKYVEEAAK
B12: E5N (designed binder)
chain: SMEENVEKAAKEYEKKKKEAIEKHLEKLKAKDKEAAERFLKELEEAAKEYAKDEAKTMSEEEAKRRAKKYKEKVLLSELSEEEQKEIKEAEEKLVRTILKYVEEAAK
B13: E103K (designed binder)
chain: SMEEEVEKAAKEYEKKKKEAIEKHLEKLKAKDKEAAERFLKELEEAAKEYAKDEAKTMSEEEAKRRAKKYKEKVLLSELSEEEQKEIKEAEEKLVRTILKYVKEAAK
B14: D65H (designed binder)
chain: MTLQELLREEALRRAEAEAFRYALELLAEKFPEQKEYLLDLAEEIESQIRSLSGVDVEDVRKFLHKEWAWVKELLAEHPAELAEVEAARAARLAELRAEVEAKVAA
B15: A106W (designed binder)
chain: MTLQELLREEALRRAEAEAFRYALELLAEKFPEQKEYLLDLAEEIESQIRSLSGVDVEDVRKFLDKEWAWVKELLAEHPAELAEVEAARAARLAELRAEVEAKVAW
B16: E95F (designed binder)
chain: MTLQELLREEALRRAEAEAFRYALELLAEKFPEQKEYLLDLAEEIESQIRSLSGVDVEDVRKFLDKEWAWVKELLAEHPAELAEVEAARAARLAFLRAEVEAKVAA
B17: F63L (designed binder)
chain: MTLQELLREEALRRAEAEAFRYALELLAEKFPEQKEYLLDLAEEIESQIRSLSGVDVEDVRKLLDKEWAWVKELLAEHPAELAEVEAARAARLAELRAEVEAKVAA
B18: R13F (designed binder)
chain: MTLQELLREEALFRAEAEAFRYALELLAEKFPEQKEYLLDLAEEIESQIRSLSGVDVEDVRKFLDKEWAWVKELLAEHPAELAEVEAARAARLAELRAEVEAKVAA
B19: E73C (designed binder)
chain: MTLQELLREEALRRAEAEAFRYALELLAEKFPEQKEYLLDLAEEIESQIRSLSGVDVEDVRKFLDKEWAWVKCLLAEHPAELAEVEAARAARLAELRAEVEAKVAA
B20: V104G (designed binder)
chain: MTLQELLREEALRRAEAEAFRYALELLAEKFPEQKEYLLDLAEEIESQIRSLSGVDVEDVRKFLDKEWAWVKELLAEHPAELAEVEAARAARLAELRAEVEAKGAA
B21: I45E (designed binder)
chain: MTLQELLREEALRRAEAEAFRYALELLAEKFPEQKEYLLDLAEEEESQIRSLSGVDVEDVRKFLDKEWAWVKELLAEHPAELAEVEAARAARLAELRAEVEAKVAA
B22: D40H (designed binder)
chain: MTLQELLREEALRRAEAEAFRYALELLAEKFPEQKEYLLHLAEEIESQIRSLSGVDVEDVRKFLDKEWAWVKELLAEHPAELAEVEAARAARLAELRAEVEAKVAA
B23: E9D (designed binder)
chain: MTLQELLRDEALRRAEAEAFRYALELLAEKFPEQKEYLLDLAEEIESQIRSLSGVDVEDVRKFLDKEWAWVKELLAEHPAELAEVEAARAARLAELRAEVEAKVAA
B24: R61I (designed binder)
chain: MTLQELLREEALRRAEAEAFRYALELLAEKFPEQKEYLLDLAEEIESQIRSLSGVDVEDVIKFLDKEWAWVKELLAEHPAELAEVEAARAARLAELRAEVEAKVAA
B25: E84I (designed binder)
chain: MTLQELLREEALRRAEAEAFRYALELLAEKFPEQKEYLLDLAEEIESQIRSLSGVDVEDVRKFLDKEWAWVKELLAEHPAELAIVEAARAARLAELRAEVEAKVAA

For the first assay, the target named is T1, TNFR1. The assay can be described thus: yeast display SC50.
As to B1, the “apparent Kd (screen)” value was found to be 0.446 nM. In the case of B2, the “apparent Kd (screen)” value worked out at 0.869 nM. Same read-out and setting: to B3 belongs 7.07 nM. Same read-out and setting: to B4 belongs 13.8 nM; to B5, 12.5 nM; to B6, 0.49 nM. Consider B7, for which the “apparent Kd (screen)” value was found to be 0.446 nM.

Consider B8, for which the “apparent Kd (screen)” value amounted to 22.2 nM. As for B9, the “apparent Kd (screen)” value was 0.869 nM. Still for that read-out and setting: to B10 belongs 0.869 nM; to B11, 0.869 nM; to B12, 0.539 nM. Same read-out and setting: to B13 belongs 0.446 nM.

The next assay concerns the target T1, TNFR1. The assay can be described thus: yeast display SC50. This is another data set of the same source.
As for B14, the “apparent Kd (screen)” value amounted to 0.718 nM. Same read-out and setting: to B15 belongs 0.956 nM; to B16, 0.446 nM. Same read-out and setting: to B17 belongs 2.48 nM.

Take B18: the “apparent Kd (screen)” value is 0.277 nM. Still for that read-out and setting: to B19 belongs 0.79 nM; to B20, 0.653 nM.

In the case of B21, the “apparent Kd (screen)” value worked out at 1.05 nM. The same measure, in the same setting: to B22 belongs 7.78 nM; to B23, 0.79 nM.

In the case of B24, the “apparent Kd (screen)” value came out at 0.539 nM.

On to B25, for which the “apparent Kd (screen)” value was 0.869 nM.
